From patent publication US20250289873A1 (BROADWING BIO, published 2025)

T1: human CFHL3-His (ATX-P-58) (human, UniProt Q02985 19-330)
T1 construct: also called human CFHR3 protein; CFHR3; not shown: C-terminal His tag (and linker)
T1 sequence (looked up): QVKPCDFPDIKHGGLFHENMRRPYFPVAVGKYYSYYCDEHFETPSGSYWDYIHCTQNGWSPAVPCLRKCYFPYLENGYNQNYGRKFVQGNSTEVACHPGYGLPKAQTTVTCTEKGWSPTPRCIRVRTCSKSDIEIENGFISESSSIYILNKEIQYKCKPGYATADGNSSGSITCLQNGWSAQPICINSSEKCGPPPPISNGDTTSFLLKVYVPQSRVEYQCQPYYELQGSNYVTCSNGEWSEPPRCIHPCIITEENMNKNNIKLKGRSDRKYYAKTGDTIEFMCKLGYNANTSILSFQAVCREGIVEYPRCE

T2: Human CFHL1-Y402H-His (ATX-P-421) (human)
T2 construct: also called human CFHL-1 (Y402H) protein
T2 chain: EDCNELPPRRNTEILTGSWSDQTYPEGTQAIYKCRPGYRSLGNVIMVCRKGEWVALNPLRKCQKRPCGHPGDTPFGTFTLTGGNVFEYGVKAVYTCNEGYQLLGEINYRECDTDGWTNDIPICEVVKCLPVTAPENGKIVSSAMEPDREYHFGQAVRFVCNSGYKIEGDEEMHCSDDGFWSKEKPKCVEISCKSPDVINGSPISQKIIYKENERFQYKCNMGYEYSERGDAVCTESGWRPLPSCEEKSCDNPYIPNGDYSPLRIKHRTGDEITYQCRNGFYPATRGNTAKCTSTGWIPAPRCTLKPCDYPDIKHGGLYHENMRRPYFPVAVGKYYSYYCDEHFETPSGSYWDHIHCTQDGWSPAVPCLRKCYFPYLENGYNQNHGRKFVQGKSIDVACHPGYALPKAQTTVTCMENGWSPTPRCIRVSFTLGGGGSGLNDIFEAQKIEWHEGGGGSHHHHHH


What was measured:
[1] = target: T1, human CFHL3-His (ATX-P-58); assay: Carterra LSA biosensor, mAb printed on chip, human CFHL3-His at 550 nM
Procedure: (§1) Experiments were also conducted to determine the reactivity of the CFHR4 antibodies with the human CFHR3 protein (FIG. 9). The binding experiments were performed on Carterra LSA with a running buffer of PBS pH 7.40, 1% BSA, 0.05% Tween20. Antibodies were covalently printed on an HC30M chip. Chip was activated with 33 mM s-NHS and 133 mM EDC in 100 mM MES pH 5.5 for 7 minutes. Antibodies at 10 mg/ml in acetic acid buffer pH 4.5 were used for printing for 10 min. The printed chip was then quenched with 1 M ethanolamine pH 8.5 for 7 min. For the reactivity assay, ATX-P-58, human CFHL3-His, at 550 nM was tested with 5 min association followed by 15 min dissociation. Results were processed and analyzed in Carterra LSA Kinetics Software. The data was referenced with the interstitial reference spots and double-referenced to a buffer cycle, and then the responses (nm) after association were reported. Isotype control was used to determine the cutoff response for positive binding.

[2] = target: T2, Human CFHL1-Y402H-His (ATX-P-421); assay: Carterra LSA biosensor, mAb printed on chip, human CFHL1-Y402H-His at 380 nM
Procedure: as §1, with “CFHL-1 (Y402H)” for “CFHR3”, “10).” for “9).”, “ATX-P-421,” for “ATX-P-58,”, “CFHL1-Y402H-His,” for “CFHL3-His,”, “380” for “550”

Binder | binding result [1] | binding result [2]
ATX-P-577 (antibody, human IgG1, kappa, N297A, V domains shown) VH: QVQLQESGPGLVKPSGTLSLTCAVSGGSISSSNWWTWVRQPPGKGLEWIGETYHDGSTNYNPSLKSRVTISVDKSKNQFSLKLSSVTAADTAVYYCLEFYFDYWGQGTLVTVSS VL: DIQMTQSPSSLSASVGDRVTITCRASQDIRNDLGWYQQKPGKVPKRLIYAASSLQSGVPSRFSGSGSGTEFTLTISSLQPEDFASYYCLQYNNYPFTLGPGTKVDIKR | binds | binds
ATX-P-579 (antibody, human IgG1, kappa, N297A, V domains shown) VH: QVQLQESGPGLVKPSGTLSLTCAVSGASISTSNWWTWVRQPPGKGLEWIGEIYHDGSTNYSPSLQSRVTISVDKSKNQFSLTLTSVTAADTAIYYCGDFYIDVWGNGTTVTVSS VL: DIQMTQSPSSLSASVGDRVTITCRASQGIRKDLGWYQQKPGKAPKRLIYTASTLQSGVPSRFSGSGSGTEFTLTISSLQPEDFATYYCLQYNNYPFTFGPGTKVDIKR | binds | binds
ATX-P-580 (antibody, human IgG1, kappa, N297A, V domains shown) VH: QVQLQESGPGLVKPSGTLSLTCAVSGGSISTSDWWTWVRQPPGKGLEWIGEIYHSGSTNYNPSLKSRVTISVDKSKNQFSLKLSSVTAADTAVYYCADWYFDLWGRGTLVTVSS VL: DIQMTQSPSSLSASVGDRVTITCRASQGIRNDLGWYQQKPGKAPKRLIYAASSLQSGVPSRFSGSGSGTEFTLAISSLQPEDFATYYCLHFNSYPFTFGPGTKVDIKR | binds | binds
ATX-P-566 (antibody, human IgG1, kappa, N297A, V domains shown) VH: QVQLQQSGPGLVKPSQTLSLTCAISGDSVSSNSAAWNWIRQSPSRGLEWLGRTYYRSKWFNNYSVSVKSRIAINPDTSKNQFSLQLNSVTPEDTAVYYCARDLGELLDWYFDLWGRGTLVTVSA VL: EIVLTQSPGTLSLSPGDRATLSCRASQSVRNSYVAWYQQKPGQAPRLLIYGASSRATGIPDRFSGSGSGTDFSLTIGRLEPEDFVVYYCQQYGNSPLTFGGGTKVEIKR | binds | binds
ATX-P-587 (antibody, human IgG1, kappa, N297A, V domains shown) VH: QVQLQQSGPGLVKPSQTLSLTCAISGDSVSSNSAAWNWIRQSPSRGLEWLGKTYYRSKWYNYYALSVKSRITINPDTSKNQFSLHLNSVTPEDTAVYYCARDGDYYLPSPFDLWGHGTMVTVSS VL: not shown | binds | binds
ATX-P-576 (antibody, human IgG1, kappa, N297A, V domains shown) VH: EVQLVESGGGLVQPGRSLRLSCTASGFTFDDYEMHWVRQAPGKGLEWVSDISRNSGRIGYADSVKGRFTISRDNAKNSLYLQMNSLRAEDTALYYCAKDIWGSGYFDYWGQGILVTVSS VL: DIQMTQSPSSVSASVGDRVTITCRTSQGIRNWLAWYQQKPGKAPKLLIYAASSLQTGGPSRFSGSGSGTDFTLTISSLQPEDFATYYCQQANSFPYTFGQGTKLEIKR | binds | binds
ATX-P-568 (antibody, human IgG1, kappa, N297A, V domains shown) VH: EVQLVESGGGLVQPGGSLRLSCAASGFPFSSYVMSWVRQAPGKGLEWVSVISVSGGSTFYADSVRGRFTISRDNSKNTLYLQVYSLRAEDTAVYYCAKDGLAVAGFDHWGQGTLVTVSS VL: DIQMTQSPSTLSASVGDRVTITCRASQSISTWLAWYQQKPGKAPKLLIHKASGLESGVPSRFSGSGSGTEFTLTISSLQPDDFATYYCQQYNSFSLIFGGGTRVEIKR | binds | binds
ATX-P-562 (antibody, human IgG1, kappa, N297A, V domains shown) VH: QVQLQQSGPGLVKSSQTLSLTCAISGDTVSSNSAAWNWIRQSPSRGLEWLGRTFYRSRWSAAYAASVSSRITINPDTSKNQFSLQLTSVTPADTAVYYCAREGVGSSTGFDYWGQGTLVTVSS VL: DIQMTQSPSSVSASIGDRVTITCRASKGISIWLAWYQQKPGKAPKVLISAASSLQSGAPSRFSGSGSGTDFTLTISSLQPEDFATYYCQQANSFPPTFGQGTKVEIKR | binds | binds
ATX-P-574 (antibody, human IgG1, kappa, N297A, V domains shown) VH: EVQLVESGGGLVQRGGSLRLSCVASGFTFSSYAMSWVRQAPGKGLEWVSVISGSGGTTYYADSVKGRFTISRDDSKKTLYLQMNSLRAEDTAVYYCAKRGDYGDYMDVWGKGTTVTVSS VL: DIQMTQSPSSVSASVGDRVTITCRASQGITTWLAWYQQKPGKAPKLLIFGASSLESGVPSRFSGSGSGTDFTLTISSLQPEDFATYYCQQANSFPWTFGQGTKVEIKR | binds | binds
ATX-P-573 (antibody, human IgG1, kappa, N297A, V domains shown) VH: QVQLQQSGPGLVKPSQTLSLTCAISGDSVSSNSAAWNWIRQSPSRGLEWLGRTYYRSKLYSDYAVSVKSRITINPDTSRNQFSLQLNSVTPEDTAVYYCAREGGYTYGYDYWGQGTLVTVSS VL: DIQMTQSPSSVSASVGDRVTITCRASQGISSWLAWYQQKPGKAPKVLIYAASSLQSGVPSRFSGSGSGTDFTLTISSLQPEDFATYYCQQANSFPPTFGPGTKVDIKR | binds | binds
ATX-P-583 (antibody, human IgG1, kappa, N297A, V domains shown) VH: QVQLVQSGAEVKKPGASVKVSCKASGYTFTTYGISWVRQAPGQGLEWMGWISAYSGNTHYAQSLQDRVTMTTDTSTSTAYMEVRSLRSDDTAVYYCAKDEGYCSSTGCLNLFDPWGQGTLVTVSS VL: DIQMTQSPSSLSASVGDRVTITCRASQNIGSYLNWYQQKPGNAPKLLIYATSTLQSGVPSRFSGSGSGTDFTLIISSLHPEDFTVYYCQQSFIIPFTFGPGTKVDIKR | binds | binds
ATX-P-578 (antibody, human IgG1, kappa, N297A, V domains shown) VH: EVQLVESGGGLVQPGGSLRLSCAASGFTFSRYSMNWVRQAPGKGLEWVSYISSSSSTIFHADSVKGRFTISRDNAKNSLYLQMNSLRDEDTAVYYCARGNWNYYYMDVWGKGTTVTVSS VL: DIQMTQSPSTLSASVGDRVTISCRASQSVNSWLAWYQQKPGKAPKLLIYKASNLEGGVPSSFSGSGSGTEFTLTISSLQPDDFATYYCQQYDTSWTFGQGTKVEIKR | binds | binds
ATX-P-564 (antibody, human IgG1, kappa, N297A, V domains shown) VH: EVQLVESGGGLVKPGGSLRLSCAASGFTFSSYTMNWVRQAPGKGLEWVSSISSSSSYTYYADSVRGRFTISRDNAKNSLYLQMSSLRAEDTAVYYCARSASIAAGMDVWGKGTTVTVSS VL: DIVMTQSPLSLPVTPGEPASISCRSSQSLLHSTGYNFLDWYLQKPGLSPQLLIYLASNRASGVPDRFSGSGSGTDFTLKISRVEAEDVGVYYCMQALQTPYTFGQGTKLEIKR | binds | binds
ATX-P-565 (antibody, human IgG1, kappa, N297A, V domains shown) VH: QVQLVESGGGVVQPGRSLRLSCAASGFTFNTYGIHWVRQAPGKGLEWVAVIWHDGSSKNYVDSVTGRFTISRDNSKNTVYLQMNSLRAEDTAVYYCARRGNWNYGFYYYYMDVWGKGTTVTVSS VL: DIVMTQSPLSLPVTPGEPASISCRSSQRLLHSSGYNYLDWYLQKPGQSPQLLIYLGSSRASGVPDRFSGSGSGTDFTLKISRVEAEDVGVYYCMQGLQTPPTFGQGTKVEIKR | binds | binds
ATX-P-563 (antibody, human IgG1, kappa, N297A, V domains shown) VH: QVQLQESGPGLMKPSETLSLTCTVSGGSISSHYWSWIRQPPGKGLEWIGYIFYSGNINYNPSLKSRVTISVDTSKNQFSLKLRSVTTADTAVYYCARDRGGSYSYHFDCWGQGTLVTVSS VL: DIQMTQSPSSVSASVGDRVTITCRASQSFAGWLAWYQQKPGKAPKLLIYAASTLQSGVPSRFSGSGSGTDFTLTISSLQPEDFATYYCQQANSFPLTFGGGTKVEIKR | binds | binds
